Assay results from patent publication US20210284724A1 (I MAB BIOPHARMA US, published 2021).
Where a chain is given by its changes, count along the chain named. One block for each binder: values may come before it.

Columns and labels:
human CXCL13 [1] = biological target: T1, human CXCL13 (human, UniProt O43927 23-109); assay: SPR Biacore, off-rate ranking of Fabs
T1 construct: also called huCXCL13; rhCXCL13
T1 sequence (looked up): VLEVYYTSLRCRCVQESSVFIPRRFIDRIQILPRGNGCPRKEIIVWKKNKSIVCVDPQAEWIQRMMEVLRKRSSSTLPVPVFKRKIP

human CXCL13 [2] = biological target: T1, human CXCL13; assay: SPR Biacore 8K, Fab over immobilised CXCL13
Method: Among all humanized Fab samples, 71F4A3-VH2VL1, 71F4A3-VH1VL1 (Hz71F4), 71F4A3-VH1VL2, 71F4A3-VH3VL1, 411A11E9-VH1VL4, 411A11E9-VH3VL4, 411A11E9-VH2VL4, 411A11E9-VH3VL2, 411A11E9-VH1VL2, 21H12D9-VH1VL1, 21H12D9-VH2VL2, 21H12D9-VH3VL3, 21H12D9-VH1VL2, 64C10G1-VH1VL3, 64C10G1-VH1VL4, 64C10G1-VH1VL1, 64C10G1-VH1VL2 were selected to test affinity by Biacore 8K. 10 mM HEPES, 150 mM NaCl, 3 mM EDTA, 0.05% Tween-20, pH 7.4 served as running buffer and 10 mM glycine-HCl, pH2.0 served as regeneration buffer. CXCL13 protein were immobilized on Sensor Chip CM5 using amine coupling method (immobilization level ˜250RU). The serial concentrations of Fab (0-20 nM) were injected over immobilized CXCL13 at the flow rate of 30 μl/min. The dissociation phases were 600s.

B5: 411A11E9-VH2VL2 (Fab, V domains shown)
VH: EVQLVESGGGLVQPGGSLRLSCAASGFTFSDYYMAWVRQAPGKGLEWVASINYDGGDTYYRDSVKGRFTISRDNAKNSLYLQMNSLRAEDTAVYYCATEEDYDGSYVMDAWGQGTLVTVSS
VL: DIQMTQSPSSLSASVGDRVTITCKASQNINKELTWYQQKPGKAPKRLIYNTNILQTGVPSRFSGSGSGTEFTLTISSLQPEDFATYFCLQQSSLYTFGQGTKLEIK
notes: Humanized Fab, human gamma 1 and kappa constant domains
Kd (human CXCL13 [1]): 1.05 nM
koff (human CXCL13 [1]): 0.00271 s⁻¹
kon (human CXCL13 [1]): 2.58e+06 M⁻¹ s⁻¹

B11: 411A11E9-VH1VL2 (Fab, V domains shown)
VH: B5 VH with T98R
VL: B5 VL
notes: as for B5
Kd (human CXCL13 [1]): 14.5 nM
koff (human CXCL13 [1]): 0.00114 s⁻¹
kon (human CXCL13 [1]): 78200 M⁻¹ s⁻¹
Kd (human CXCL13 [2]): 2.83 nM
koff (human CXCL13 [2]): 0.00161 s⁻¹
kon (human CXCL13 [2]): 570000 M⁻¹ s⁻¹

B12: 411A11E9-VH1VL4 (Fab, V domains shown)
VH: B5 VH with T98R
VL: B5 VL with V58I, F71Y
notes: as for B5
Kd (human CXCL13 [1]): 1.82 nM
koff (human CXCL13 [1]): 0.00063 s⁻¹
kon (human CXCL13 [1]): 346000 M⁻¹ s⁻¹
Kd (human CXCL13 [2]): 0.844 nM
koff (human CXCL13 [2]): 0.00157 s⁻¹
kon (human CXCL13 [2]): 1.86e+06 M⁻¹ s⁻¹

B13: 411A11E9-VH1VL3 (Fab, V domains shown)
VH: B5 VH with T98R
VL: B5 VL with V58I
notes: as for B5
Kd (human CXCL13 [1]): 3.37 nM
koff (human CXCL13 [1]): 0.00176 s⁻¹
kon (human CXCL13 [1]): 523000 M⁻¹ s⁻¹

B15: 411A11E9-VH2VL3 (Fab, V domains shown)
VH: B5 VH
VL: B5 VL with V58I
notes: as for B5
Kd (human CXCL13 [1]): 1.42 nM
koff (human CXCL13 [1]): 0.00335 s⁻¹
kon (human CXCL13 [1]): 2.36e+06 M⁻¹ s⁻¹

B18: 411A11E9-VH4VL3 (Fab, V domains shown)
VH: B5 VH with A24V, I70V, T115A
VL: B5 VL with V58I
notes: as for B5
Kd (human CXCL13 [1]): 1.24 nM
koff (human CXCL13 [1]): 0.00266 s⁻¹
kon (human CXCL13 [1]): 2.14e+06 M⁻¹ s⁻¹

B21: 21H12D9-VH2VL2 (Fab, V domains shown)
VH: QVQLVQSGAEVVKPGASVKVSCKASGYTFTDYYMNWVRQAPGQGLEWMGVINPNNGGTTYKEKFKGRVTMTVDTSISTAYMELSRLRSDDTAVYYCARDDYDAGYWGQGTLVTVSS
VL: DIQMTQSPSSVSTSVGDRVTITCKASQNVDTAVAWYQQKPGKAPKLLIYSASHRYTGVPSRFSGSGSGTDFTLTISSLQPEDFATYYCQQYTDFPLTFGQGTRLEIK
notes: Humanized Fab, human gamma 1 and kappa constant domains; also called 21VH12D9-VH2VL2
Kd (human CXCL13 [1]): 1.94 nM
koff (human CXCL13 [1]): 0.000802 s⁻¹
kon (human CXCL13 [1]): 414000 M⁻¹ s⁻¹
Kd (human CXCL13 [2]): 1.32 nM
koff (human CXCL13 [2]): 0.00195 s⁻¹
kon (human CXCL13 [2]): 1.48e+06 M⁻¹ s⁻¹

B22: 21H12D9-VH4VL1 (Fab, V domains shown)
VH: B21 VH with V20M, M48I, V68A, M70L, S77G, V112L
VL: B21 VL with T13A
notes: Humanized Fab, human gamma 1 and kappa constant domains; also called 21VH12D9-VH4VL1
Kd (human CXCL13 [1]): 1.73 nM
koff (human CXCL13 [1]): 0.00107 s⁻¹
kon (human CXCL13 [1]): 618000 M⁻¹ s⁻¹

B23: 21H12D9-VH1VL3 (Fab, V domains shown)
VH: B21 VH with V12K, V72R
VL: B21 VL with L78V
notes: Humanized Fab, human gamma 1 and kappa constant domains; also called 21VH12D9-VH1VL3
Kd (human CXCL13 [1]): 1.67 nM
koff (human CXCL13 [1]): 0.000975 s⁻¹
kon (human CXCL13 [1]): 584000 M⁻¹ s⁻¹

B24: 21H12D9-VH4VL3 (Fab, V domains shown)
VH: B21 VH with V20M, M48I, V68A, M70L, S77G, V112L
VL: B21 VL with L78V
notes: Humanized Fab, human gamma 1 and kappa constant domains; also called 21VH12D9-VH4VL3
Kd (human CXCL13 [1]): 1.59 nM
koff (human CXCL13 [1]): 0.00116 s⁻¹
kon (human CXCL13 [1]): 729000 M⁻¹ s⁻¹

B25: 21H12D9-VH3VL1 (Fab, V domains shown)
VH: B21 VH with M48I, V68A, M70L
VL: B21 VL with T13A
notes: Humanized Fab, human gamma 1 and kappa constant domains; also called 21VH12D9-VH3VL1
Kd (human CXCL13 [1]): 1.76 nM
koff (human CXCL13 [1]): 0.00131 s⁻¹
kon (human CXCL13 [1]): 744000 M⁻¹ s⁻¹

B26: 21H12D9-VH2VL1 (Fab, V domains shown)
VH: B21 VH
VL: B21 VL with T13A
notes: Humanized Fab, human gamma 1 and kappa constant domains; also called 21VH12D9-VH2VL1
Kd (human CXCL13 [1]): 1.74 nM
koff (human CXCL13 [1]): 0.000991 s⁻¹
kon (human CXCL13 [1]): 570000 M⁻¹ s⁻¹

B27: 21H12D9-VH4VL2 (Fab, V domains shown)
VH: B21 VH with V20M, M48I, V68A, M70L, S77G, V112L
VL: B21 VL
notes: Humanized Fab, human gamma 1 and kappa constant domains; also called 21VH12D9-VH4VL2
Kd (human CXCL13 [1]): 1.54 nM
koff (human CXCL13 [1]): 0.00114 s⁻¹
kon (human CXCL13 [1]): 742000 M⁻¹ s⁻¹

B28: 21H12D9-VH2VL3 (Fab, V domains shown)
VH: B21 VH
VL: B21 VL with L78V
notes: Humanized Fab, human gamma 1 and kappa constant domains; also called 21VH12D9-VH2VL3
Kd (human CXCL13 [1]): 1.98 nM
koff (human CXCL13 [1]): 0.000992 s⁻¹
kon (human CXCL13 [1]): 501000 M⁻¹ s⁻¹

B29: 21H12D9-VH3VL2 (Fab, V domains shown)
VH: B21 VH with M48I, V68A, M70L
VL: B21 VL
notes: Humanized Fab, human gamma 1 and kappa constant domains; also called 21VH12D9-VH3VL2
Kd (human CXCL13 [1]): 1.47 nM
koff (human CXCL13 [1]): 0.00138 s⁻¹
kon (human CXCL13 [1]): 940000 M⁻¹ s⁻¹

Results, then the binder that gave them:

Kd (human CXCL13 [1]): 0.607 nM
koff (human CXCL13 [1]): 0.00137 s⁻¹
kon (human CXCL13 [1]): 2.25e+06 M⁻¹ s⁻¹
B1: 71F4A3-VH2VL2 (Fab, V domains shown)
VH: EVQLVQSGGGLVQPGGSLRLSCAASGIDFSRYWMSWVRQAPGKGLEWVAEINPDSSTINYAPSLKDRFTISRDNAKNSLYLQMNSLRAEDTAVYYCARQDDYEYYAMDYWGQGTTVTVSS
VL: DIQMTQSPSSLSASVGDRVTITCKASQDVNTGVAWYQQKPGKAPKLLIYSASYRYTGVPSRFSGSGSGTDFTFTISSVQPEDIATYYCQQYYSTPLTFGGGTKLEIK
notes: as for B5

Kd (human CXCL13 [1]): 0.53 nM
koff (human CXCL13 [1]): 0.00136 s⁻¹
kon (human CXCL13 [1]): 2.57e+06 M⁻¹ s⁻¹
B2: 71F4A3-VH4VL2 (Fab, V domains shown)
VH: B1 VH with V48I, A49G, L86V
VL: B1 VL
notes: as for B5

Kd (human CXCL13 [1]): 0.557 nM
koff (human CXCL13 [1]): 0.00139 s⁻¹
kon (human CXCL13 [1]): 2.5e+06 M⁻¹ s⁻¹
B3: 71F4A3-VH3VL2 (Fab, V domains shown)
VH: B1 VH with A49G, L86V
VL: B1 VL
notes: as for B5

Kd (human CXCL13 [1]): 0.59 nM
koff (human CXCL13 [1]): 0.001 s⁻¹
kon (human CXCL13 [1]): 1.7e+06 M⁻¹ s⁻¹
B4: 71F4A3-VH4VL1 (Fab, V domains shown)
VH: B1 VH with V48I, A49G, L86V
VL: B1 VL with V78L
notes: as for B5

Kd (human CXCL13 [1]): 0.634 nM
koff (human CXCL13 [1]): 0.00105 s⁻¹
kon (human CXCL13 [1]): 1.66e+06 M⁻¹ s⁻¹
Kd (human CXCL13 [2]): 0.931 nM
koff (human CXCL13 [2]): 0.000887 s⁻¹
kon (human CXCL13 [2]): 953000 M⁻¹ s⁻¹
B6: 411A11E9-VH2VL4 (Fab, V domains shown)
VH: B5 VH
VL: B5 VL with V58I, F71Y
notes: as for B5

Kd (human CXCL13 [1]): 1.01 nM
koff (human CXCL13 [1]): 0.00207 s⁻¹
kon (human CXCL13 [1]): 2.05e+06 M⁻¹ s⁻¹
B7: 411A11E9-VH3VL3 (Fab, V domains shown)
VH: B5 VH with A24V
VL: B5 VL with V58I
notes: as for B5

Kd (human CXCL13 [1]): 1.04 nM
koff (human CXCL13 [1]): 0.013 s⁻¹
kon (human CXCL13 [1]): 1.25e+07 M⁻¹ s⁻¹
B8: 411A11E9-VH1VL1 (Fab, V domains shown)
VH: B5 VH with T98R
VL: B5 VL with F87Y
notes: as for B5

Kd (human CXCL13 [1]): 1.03 nM
koff (human CXCL13 [1]): 0.00281 s⁻¹
kon (human CXCL13 [1]): 2.73e+06 M⁻¹ s⁻¹
B9: 411A11E9-VH4VL1 (Fab, V domains shown)
VH: B5 VH with A24V, I70V, T115A
VL: B5 VL with F87Y
notes: as for B5

Kd (human CXCL13 [1]): 0.611 nM
koff (human CXCL13 [1]): 0.00107 s⁻¹
kon (human CXCL13 [1]): 1.74e+06 M⁻¹ s⁻¹
B10: 411A11E9-VH4VL4 (Fab, V domains shown)
VH: B5 VH with A24V, I70V, T115A
VL: B5 VL with V58I, F71Y
notes: as for B5

Kd (human CXCL13 [1]): 1.19 nM
koff (human CXCL13 [1]): 0.00283 s⁻¹
kon (human CXCL13 [1]): 2.37e+06 M⁻¹ s⁻¹
B14: 411A11E9-VH2VL1 (Fab, V domains shown)
VH: B5 VH
VL: B5 VL with F87Y
notes: as for B5

Kd (human CXCL13 [1]): 1.06 nM
koff (human CXCL13 [1]): 0.00242 s⁻¹
kon (human CXCL13 [1]): 2.29e+06 M⁻¹ s⁻¹
B16: 411A11E9-VH3VL1 (Fab, V domains shown)
VH: B5 VH with A24V
VL: B5 VL with F87Y
notes: as for B5

Kd (human CXCL13 [1]): 0.919 nM
koff (human CXCL13 [1]): 0.00163 s⁻¹
kon (human CXCL13 [1]): 1.78e+06 M⁻¹ s⁻¹
Kd (human CXCL13 [2]): 1.2 nM
koff (human CXCL13 [2]): 0.00126 s⁻¹
kon (human CXCL13 [2]): 1.05e+06 M⁻¹ s⁻¹
B17: 411A11E9-VH3VL2 (Fab, V domains shown)
VH: B5 VH with A24V
VL: B5 VL
notes: as for B5

Kd (human CXCL13 [1]): 0.498 nM
koff (human CXCL13 [1]): 0.00109 s⁻¹
kon (human CXCL13 [1]): 2.19e+06 M⁻¹ s⁻¹
Kd (human CXCL13 [2]): 0.908 nM
koff (human CXCL13 [2]): 0.000823 s⁻¹
kon (human CXCL13 [2]): 906000 M⁻¹ s⁻¹
B19: 411A11E9-VH3VL4 (Fab, V domains shown)
VH: B5 VH with A24V
VL: B5 VL with V58I, F71Y
notes: as for B5

Kd (human CXCL13 [1]): 0.944 nM
koff (human CXCL13 [1]): 0.00196 s⁻¹
kon (human CXCL13 [1]): 2.08e+06 M⁻¹ s⁻¹
B20: 411A11E9-VH4VL2 (Fab, V domains shown)
VH: B5 VH with A24V, I70V, T115A
VL: B5 VL
notes: as for B5
